Measured values: the supplement of paper PMC10567573

B1: TMEM175 (parent)
chain: SCTIIFLASIFQLAMWTTALLHQA

Variants of: B1
Assay: protein stability index of a GFP-peptide fusion (GPS, HEK-293T) (PSI 1-6); higher = more stable
Settings: c terminus: a fixed tail appended
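Note: lentivirally expressed fusions sorted by FACS into six bins by GFP to DsRed ratio, PSI derived from sequencing read proportions per bin multiplied by bin number.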

| Variant | protein stability index |
| --- | --- |
| SCTIIFLASIWQLAMWTTALLHQA [F11W] | 2.6 |
| SCTIIFLASIYQLAMWTTALLHQA [F11Y] | 1.79 |
| SCTIIFLASIFQLALWTTALLHQA [M15L] | 2.53 |
| SCTIIFLASIFQLAEWTTALLHQA [M15E] | 3.53 |
| SCTIIFLASIFQLAHWTTALLHQA [M15H] | 2.49 |
| SCTIIFLASIFQLAVWTTALLHQA [M15V] | 3.45 |
| SCTIIFLASIFQLAAWTTALLHQA [M15A] | 3.24 |
| SCTIIFLASIFQLAQWTTALLHQA [M15Q] | 2.52 |
| SCTIIFLASIFQLATWTTALLHQA [M15T] | 3.17 |
| SCTIIFLASIFQLAFWTTALLHQA [M15F] | 2.73 |
| SCTIIFLASIFQLAPWTTALLHQA [M15P] | 3.25 |
| SCTIIFLASIFQLAWWTTALLHQA [M15W] | 3.1 |
| SCTIIFLASIFQLADWTTALLHQA [M15D] | 3.28 |
| SCTIIFLASIFQLANWTTALLHQA [M15N] | 2.51 |
| SCTIIFLASIFQLASWTTALLHQA [M15S] | 2.48 |
| SCTIIFLASIFQLAIWTTALLHQA [M15I] | 2.79 |
| SCTIIFLASIFQLAYWTTALLHQA [M15Y] | 2.97 |
| SCTIIFLASIFQLAKWTTALLHQA [M15K] | 2.96 |
| SCTIIFLASIFQLARWTTALLHQA [M15R] | 1.69 |
| SCTIIFLASIFQPAMWTTALLHQA [L13P] | 2.24 |
| SCTIIFLASIFQRAMWTTALLHQA [L13R] | 1.63 |
| SCTIIFLASIFQNAMWTTALLHQA [L13N] | 3.15 |
| SCTIIFLASIFQFAMWTTALLHQA [L13F] | 3.07 |
| SCTIIFLASIFQYAMWTTALLHQA [L13Y] | 2.81 |

| Variant | protein stability index |
| --- | --- |
| SCTIIFLASIFQMAMWTTALLHQA [L13M] | 2.97 |
| SCTIIFLASIFQDAMWTTALLHQA [L13D] | 2.59 |
| SCTIIFLASIFQCAMWTTALLHQA [L13C] | 2.76 |
| SCTIIFLASIFQTAMWTTALLHQA [L13T] | 2.49 |
| SCTIIFLASIFQSAMWTTALLHQA [L13S] | 3.46 |
| SCTIIFLASIFQEAMWTTALLHQA [L13E] | 2.24 |
| SCTIIFLASIFQVAMWTTALLHQA [L13V] | 3.31 |
| SCTIIFLASIFQIAMWTTALLHQA [L13I] | 2.5 |
| SCTIIFLASIFQAAMWTTALLHQA [L13A] | 2.85 |
| SCTIIFLASIFQQAMWTTALLHQA [L13Q] | 3.08 |
| SCTIIFLASIFQHAMWTTALLHQA [L13H] | 3.13 |
| SCTIIFLASIFQLMMWTTALLHQA [A14M] | 3.19 |
| SCTIIFLASIFQLTMWTTALLHQA [A14T] | 2.73 |
| SCTIIFLASIFQLSMWTTALLHQA [A14S] | 2.58 |
| SCTIIFLASIFQLRMWTTALLHQA [A14R] | 3.53 |
| SCTIIFLASIFQLPMWTTALLHQA [A14P] | 2.29 |
| SCTIIFLASIFQLLMWTTALLHQA [A14L] | 4.29 |
| SCTIIFLASIFQLFMWTTALLHQA [A14F] | 2.76 |
| SCTIIFLASIFQLGMWTTALLHQA [A14G] | 3.94 |
| SCTIIFLASIFQLKMWTTALLHQA [A14K] | 3.08 |
| SCTIIFLASIFQLDMWTTALLHQA [A14D] | 4 |
| SCTIIFLASIFQLWMWTTALLHQA [A14W] | 2.09 |
| SCTIIFLASIFQLNMWTTALLHQA [A14N] | 2.62 |
| SCTIIFLASIFQLYMWTTALLHQA [A14Y] | 4 |

| Variant | protein stability index |
| --- | --- |
| SCTIIFLASIFQLIMWTTALLHQA [A14I] | 3.4 |
| SCTIIFLASIFQLQMWTTALLHQA [A14Q] | 4.22 |
| SCTIIFLASIFQLHMWTTALLHQA [A14H] | 3 |
| SCTIIFLASIFQLCMWTTALLHQA [A14C] | 3.07 |
| SCTIIFLASIFQLEMWTTALLHQA [A14E] | 1.9 |
| SCTIIFLASIFQLAMWHTALLHQA [T17H] | 4.62 |
| SCTIIFLASIFQLAMWKTALLHQA [T17K] | 2.94 |
| SCTIIFLASIFQLAMWNTALLHQA [T17N] | 3.8 |
| SCTIIFLASIFQLAMWDTALLHQA [T17D] | 3.83 |
| SCTIIFLASIFQLAMWFTALLHQA [T17F] | 1.74 |
| SCTIIFLASIFQLAMWITALLHQA [T17I] | 3.54 |
| SCTIIFLASIFQLAMWLTALLHQA [T17L] | 3.31 |
| SCTIIFLASIFQLAMWETALLHQA [T17E] | 2.36 |
| SCTIIFLASIFQLAMWATALLHQA [T17A] | 1.59 |
| SCTIIFLASIFTLAMWTTALLHQA [Q12T] | 3.43 |
| SCTIIFLASIFVLAMWTTALLHQA [Q12V] | 2.25 |
| SCTIIFLASIFLLAMWTTALLHQA [Q12L] | 3.15 |
| SCTIIFLASIFHLAMWTTALLHQA [Q12H] | 3.19 |
| SCTIIFLASIFCLAMWTTALLHQA [Q12C] | 3.71 |
| SCTIIFLASIFYLAMWTTALLHQA [Q12Y] | 1.89 |
| SCTIIFLASIFILAMWTTALLHQA [Q12I] | 3.51 |
| SCTIIFLASIFMLAMWTTALLHQA [Q12M] | 2.6 |
| SCTIIFLASIFPLAMWTTALLHQA [Q12P] | 2.3 |
| SCTIIFLASIFALAMWTTALLHQA [Q12A] | 3.29 |

| Variant | protein stability index |
| --- | --- |
| SCTIIFLASIFSLAMWTTALLHQA [Q12S] | 2.75 |
| SCTIIFLASIFGLAMWTTALLHQA [Q12G] | 2.9 |
| SCTIIFLASIFNLAMWTTALLHQA [Q12N] | 3.72 |
| SCTIIFLASIFFLAMWTTALLHQA [Q12F] | 2.61 |
| SCTIIFLASIFDLAMWTTALLHQA [Q12D] | 3.29 |
| SCTIIFLASIFELAMWTTALLHQA [Q12E] | 3.39 |
| SCTIIFLASIFQLAMLTTALLHQA [W16L] | 2.94 |
| SCTIIFLASIFQLAMMTTALLHQA [W16M] | 3.11 |
| SCTIIFLASIFQLAMKTTALLHQA [W16K] | 2.44 |
| SCTIIFLASIFQLAMRTTALLHQA [W16R] | 2.51 |
| SCTIIFLASIFQLAMYTTALLHQA [W16Y] | 3.76 |
| SCTIIFLASIFQLAMFTTALLHQA [W16F] | 1.76 |
| SCTIIFLASIFQLAMATTALLHQA [W16A] | 3.29 |
| SCTIIFLASIFQLAMCTTALLHQA [W16C] | 3.44 |
| SCTIIFLASIFQLAMVTTALLHQA [W16V] | 3.96 |
| SCTIIFLASIFQLAMSTTALLHQA [W16S] | 2.58 |
| SCTIIFLASIFQLAMQTTALLHQA [W16Q] | 1.12 |
| SCTIIFLASIFQLAMITTALLHQA [W16I] | 3.15 |
| SCTIIFLASIFQLAMNTTALLHQA [W16N] | 3.23 |
| SCTIIFLASIFQLAMPTTALLHQA [W16P] | 2.53 |
| SCTIIFLASIFQLAMHTTALLHQA [W16H] | 1.8 |
| SCTIIFLASIFQLAMGTTALLHQA [W16G] | 2.72 |
